This is an account of results in US6998254, “Use of ROR for receptors for screening substances useful for the treatment of atherosclerosis” (Merck Patent Gesellschaft).

Common to all, as to conditions: tags: TnT T7 reticulocyte lysate from pCMX-hRORα1
Data set [1] concerns the target T1, hRORα1 (RORA isoform 1) (Homo sapiens, UniProt P35398 P35398:1-523).
T1 sequence: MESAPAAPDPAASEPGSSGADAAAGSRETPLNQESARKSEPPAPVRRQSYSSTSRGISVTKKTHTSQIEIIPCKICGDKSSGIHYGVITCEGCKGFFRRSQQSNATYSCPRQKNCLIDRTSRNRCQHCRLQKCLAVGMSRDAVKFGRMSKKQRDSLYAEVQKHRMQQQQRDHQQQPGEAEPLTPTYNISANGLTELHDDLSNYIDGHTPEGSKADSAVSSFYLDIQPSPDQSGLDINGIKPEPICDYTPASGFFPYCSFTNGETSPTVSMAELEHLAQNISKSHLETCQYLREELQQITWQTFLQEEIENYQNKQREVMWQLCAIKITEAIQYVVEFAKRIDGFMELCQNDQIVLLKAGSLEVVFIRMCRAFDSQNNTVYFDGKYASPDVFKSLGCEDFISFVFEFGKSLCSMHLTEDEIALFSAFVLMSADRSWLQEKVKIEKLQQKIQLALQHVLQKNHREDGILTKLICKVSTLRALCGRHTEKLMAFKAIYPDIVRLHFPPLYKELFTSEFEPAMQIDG
The data set can be described thus: competition; unlabelled competitor 10-100x. The procedure:
(§1) During the competition experiments, increasing concentrations of nonlabelled double-stranded oligo-nucleotides (molar excess of 10 to 100 fold) were added to the mixtures and incubated for 15 min at room temperature before the addition of the radioactive probes. After addition of the radioactive probes, the reticulocyte lysates were added to the mixture and incubated for 15 min at room temperature before the separation of the protein/DNA complexes by electrophoresis on a polyacrylamide gel (4%) in a 0.25× Tris-borate-EDTA buffer at room temperature (50).
In this figure, fragment −90/−64 of the promoter of the human gene for apo C-III was phosphorylated at the 5' ends with polynucleotide kinase in the presence of [γ-^32P]ATP. This probe was incubated in the presence of reticuloycte lysate ("TNT-T7", Promega) programmed to express the hRORα1 receptor according to the protocol defined by the manufacturer or in the presence of control lysate. The DNA/protein complexes were then separated on nondenaturing polyacrylamide gel. After drying, the gel is subjected to autoradiography. The first lane of the gel corresponds to the migration of the probe incubated in the presence of control lysate. The other lanes correspond to the migration of the probe incubated in the presence of lysate programmed to express hRORα1. […]

Data set [2] addresses T1, hRORα1 (RORA isoform 1). The data set can be described thus: competition; unlabelled competitor 10-100x. This is another data set of the same source.
Data set [3] addresses T1, hRORα1 (RORA isoform 1). The data set can be described thus: competition; 10-100x excess does not compete. The procedure: as §1
In FIG. 7, the −198/+24 fragment of the promoter of the human gene for apo C-III was amplified by PCR with the aid of the primers 82 and 512 (Table 1) previously phosphoryiated at the 5' end by poly-nucleotide kinase in the presence of [γ-^32P]ATP. This probe was incubated in the presence of reticulocyte lysate (TNT-T7, Promega) programmed to express the hRORα1 receptor according to the protocol defined by the manufacturer or in the presence of control lysate. The DNA/protein complexes were then separated on a non denaturing polyacrylamide gel. After drying, the gel is subjected to autoradiography. The first lane of the gel corresponds to the migration of the probe alone. The second lane corresponds to the migration of the probe incubated in the presence of the control lysate. […]

B1: RORECons (dsDNA)
DNA 1: GATCTTGACCTACATTCTAAGCTG
DNA 2: GATCCAGCTTAGAATGTAGGTCAA
Take B1: the binding result in data set [1] is given as “binds”.

B2: rAITaTaWT (-36/-12) (dsDNA)
DNA 1: GATCCACACATATATAGGTCAGGGAAGAAGA
DNA 2: GATCTCTTCTTCCCTGACCTATATATGTGTG
Turning to B2, the binding result in data set [2] was “binds”.

B3: hCIIITaTaKO (-33/-10) (dsDNA)
DNA 1: GATCGATATAAAACAGGCAGGAACCCTC
DNA 2: GATCGAGGGTTCCTGCCTGTTTTATATC
In the case of B3, the binding result in data set [3] is given as “no binding”.
